We go through one molecule from patent US20220380473A1, “ANTI-GAL3 ANTIBODIES AND USES THEREOF” (TrueBinding, Inc., priority 2019, published 2022).

In this assay the test system is mouse macrophage cell line RAW264.7. As to the kind of experiment: IHC and flow cytometry staining of RAW mouse macrophages. The format is cell-based. As for the experimental part:
The expression of Gal3 on mouse macrophages was detected by both IHC and Flow cytometry analysis. In the details of IHC, 100,000 cells per well were seeded overnight. On the second day, cells were washed once with PBS, fixed with 3% formaldehyde at room temperature for 10 min, then washed twice with PBS and blocked in PBS containing 10% FBS and […] for 1 h at room temperature. After blocking, cells were incubated with 10 μg/mL of 1st antibody mIgG-biotin (BioLegend) or IMT001-biotin at 4° C. overnight, washed three times with PBST, stained with avidin-HRP (1:1000) at room temperature for 1 h and then washed three times again with PBST. The staining was developed using peroxidase substrate and counterstained with Hematoxylin QS (Vector Laboratories).
In the experiment of flow cytometry, 100,000 RAW cells were blocked with 10% FBS plus 200 μg/mL hIgG on ice for 20 min, and then incubated with 100 μl 10% FBS HBSS solution that contains control mIgG (BD Biosciences) or IMT001 at 10 μg/ml on ice for 20 minutes. Then cells were washed and incubated with APC conjugated anti-mFc antibodies (Jackson ImmunoResearch) at 1:100 on ice for 20 min. After spinning, live/dead cells were stained with Violet dead cell stain kit (Life Technologies). Stained cells were subjected to flow analysis.

B1: IMT001: anti-Gal3 monoclonal antibody (Immutics); printed as mIMT001 (IMT001), murine (antibody, V domains shown)
VH: QIQLVQSGPELKKPGETVKISCKASGYTFTNYGMNWVKQAPGKGLKWMGWINTNTGEPTYVEEFKGRFAFSLETSASTAYLQINNLKNEDTATYFCAPYDNFFAYWGQGTLVTVSA
VL: DIVITQDELSNPVTSGESVSISCRSSKSLLYKDGKTYLNWFLQRPGQSPQLLIYLMSTHASGVSDRFSGSGSGTDFTLEISRVKAEDVGVYYCQQLVDYPLTFGAGTKLELK
Consider B1, for which the “IHC detection of Gal3 on macrophages” value (10 μg/mL, vs mIgG control) is recorded as “clearly detected Gal3 expression on macrophages”. Also, the “MFI of stained RAW cells vs isotype control” value (10 μg/ml, flow cytometry) is reported as “more than 10 folds”.
